The record followed here is US20150064751.

The subject of this series is cleavage control protein containing an enterokinase cleavage site (Asp-Asp-Asp-Asp-Lys).

Take recombinant enterokinase (Novagen): the “protease cleavage, detection of the 16 kDa cleavage fragment by immunoblot (2 h, room temperature)” value was “The target protein was specifically cleaved by recombinant enterokinase (lane 2)”.
